Assay results taken from paper PMC3575409, “Identification of a Novel Protein-Protein Interaction Motif Mediating Interaction of GPCR-Associated Sorting Proteins with G Protein-Coupled Receptors” (PLoS ONE, 2013).
Blank lines part the entries; values can stand above or below the substance they belong to.

Columns and labels:
[1] = target: GST-fused C-tail of the β1 adrenergic receptor (residues 373–477); test: GST pull-down; conditions: parent: est. 100; read off a plot
[2] = target: GST-fused C-tail of the muscarinic M1 acetylcholine receptor (residues 414–460); test: GST pull-down; conditions: parent: est. 100; read off a plot
[3] = target: T1, GST-fused C-tail of the calcitonin receptor (residues 407–490); test: GST pull-down; conditions: parent: est. 100; read off a plot
T1 sequence (P30988 whole entry, species assumed, looked up): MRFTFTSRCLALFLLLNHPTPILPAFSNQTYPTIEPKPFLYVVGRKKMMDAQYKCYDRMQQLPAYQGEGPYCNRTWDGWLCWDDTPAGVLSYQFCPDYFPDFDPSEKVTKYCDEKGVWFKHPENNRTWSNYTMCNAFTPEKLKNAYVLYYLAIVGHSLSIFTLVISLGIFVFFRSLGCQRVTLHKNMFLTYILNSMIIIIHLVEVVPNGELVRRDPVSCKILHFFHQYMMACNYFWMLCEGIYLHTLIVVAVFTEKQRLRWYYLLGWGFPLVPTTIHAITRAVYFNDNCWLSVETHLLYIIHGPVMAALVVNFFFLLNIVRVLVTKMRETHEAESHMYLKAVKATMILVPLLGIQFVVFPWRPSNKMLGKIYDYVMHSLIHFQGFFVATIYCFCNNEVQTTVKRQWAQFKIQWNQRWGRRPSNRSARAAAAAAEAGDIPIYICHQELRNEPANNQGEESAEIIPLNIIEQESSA

[4] = target: GST-fused C-tail of the type III transforming growth factor β receptor (residues 805–849); test: pull-down; GST-fused receptor C-tails immobilized on glutathione-Sepharose beads, incubated with [35S]-labelled in vitro translated GASPs 1 h at 4°C; 20 mM Tris-HCl pH 7.4, 150 mM NaCl, 1 mM EDTA, 1 mM DTT, 10% glycerol, 1% Triton X-100; Phosphor-imager quantification
[5] = target: GST-fused C-tail of the histamine 2 receptor (residues 284–349); test: as above
[6] = target: GST-fused C-tail of the α isoform of the thromboxane A2 receptor (residues 304–343); test: as above
[7] = target: GST-fused C-tail of the β1 adrenergic receptor (residues 373–477); test: as above
[8] = target: GST-fused C-tail of the muscarinic M1 acetylcholine receptor (residues 414–460); test: as above
free GST = test: as above
[9] = target: T1, GST-fused C-tail of the calcitonin receptor (residues 407–490); test: as above
[10] = target: GST-fused C-tail of the insulin growth factor I receptor (residues 1268–1367); test: as above
[11] = target: GST-fused C-tail of the δ-opioid receptor (residues 314–372); test: as above

Sequence of GASP-9 (Q7L311 whole entry): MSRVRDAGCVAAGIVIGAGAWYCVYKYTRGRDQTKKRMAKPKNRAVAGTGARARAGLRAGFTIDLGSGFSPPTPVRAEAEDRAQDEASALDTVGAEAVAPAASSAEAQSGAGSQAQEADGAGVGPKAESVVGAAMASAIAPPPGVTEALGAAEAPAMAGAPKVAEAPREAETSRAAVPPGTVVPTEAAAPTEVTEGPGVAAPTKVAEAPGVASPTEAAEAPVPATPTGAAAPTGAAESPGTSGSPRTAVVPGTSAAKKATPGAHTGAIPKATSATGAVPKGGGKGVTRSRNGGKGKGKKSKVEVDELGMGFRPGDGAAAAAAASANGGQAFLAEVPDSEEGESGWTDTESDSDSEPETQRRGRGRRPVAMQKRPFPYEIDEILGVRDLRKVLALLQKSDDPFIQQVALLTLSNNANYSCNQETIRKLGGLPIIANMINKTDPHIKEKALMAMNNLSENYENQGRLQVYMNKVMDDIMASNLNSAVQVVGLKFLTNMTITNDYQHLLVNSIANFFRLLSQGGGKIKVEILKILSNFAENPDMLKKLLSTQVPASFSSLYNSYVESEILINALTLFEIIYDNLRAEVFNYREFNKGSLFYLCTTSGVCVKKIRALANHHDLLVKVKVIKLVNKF
Sequence of GPCR-associated sorting protein 2 (GASP-2), full-length (from UniProt Q96D09) SWFW>AAAA in first GASP motif; SWFW>AAAA in second GASP motif (GASP2-dm; residue numbers not printed) (Q96D09 whole entry, change not shown): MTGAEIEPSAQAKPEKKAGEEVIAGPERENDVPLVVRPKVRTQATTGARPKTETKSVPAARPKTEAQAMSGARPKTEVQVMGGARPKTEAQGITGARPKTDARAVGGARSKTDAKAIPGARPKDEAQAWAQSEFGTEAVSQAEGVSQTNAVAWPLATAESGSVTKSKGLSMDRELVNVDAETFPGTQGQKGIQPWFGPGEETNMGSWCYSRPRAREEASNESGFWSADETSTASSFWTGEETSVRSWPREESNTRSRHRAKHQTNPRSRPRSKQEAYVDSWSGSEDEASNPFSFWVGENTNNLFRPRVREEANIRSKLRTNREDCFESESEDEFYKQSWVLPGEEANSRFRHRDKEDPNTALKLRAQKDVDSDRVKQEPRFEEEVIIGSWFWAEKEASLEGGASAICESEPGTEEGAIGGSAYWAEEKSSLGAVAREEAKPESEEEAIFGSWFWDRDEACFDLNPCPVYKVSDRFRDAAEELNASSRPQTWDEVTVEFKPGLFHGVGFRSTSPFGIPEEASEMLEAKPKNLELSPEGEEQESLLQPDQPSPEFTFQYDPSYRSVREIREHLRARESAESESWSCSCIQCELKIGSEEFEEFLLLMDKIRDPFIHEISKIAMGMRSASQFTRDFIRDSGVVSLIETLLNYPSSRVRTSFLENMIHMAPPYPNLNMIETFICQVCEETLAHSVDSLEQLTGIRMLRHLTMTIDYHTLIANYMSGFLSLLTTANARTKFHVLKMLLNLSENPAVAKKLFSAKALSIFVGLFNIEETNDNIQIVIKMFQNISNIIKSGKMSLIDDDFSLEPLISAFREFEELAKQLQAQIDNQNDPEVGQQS
Sequence of GPCR-associated sorting protein 2 (GASP-2), full-length (from UniProt Q96D09) SWFW>AAAA in first GASP motif (GASP2-m1; residue numbers not printed) (Q96D09 whole entry, change not shown): as above
Sequence of GPCR-associated sorting protein 2 (GASP-2), full-length (from UniProt Q96D09) SWFW>AAAA in second GASP motif (GASP2-m2; residue numbers not printed) (Q96D09 whole entry, change not shown): as above
Sequence of GST-fused C-tail of the type III transforming growth factor β receptor (residues 805–849) (Q03167 805-849): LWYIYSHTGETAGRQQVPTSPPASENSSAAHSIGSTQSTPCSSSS
Sequence of GST-fused C-tail of the histamine 2 receptor (residues 284–349) (P25021 284-349): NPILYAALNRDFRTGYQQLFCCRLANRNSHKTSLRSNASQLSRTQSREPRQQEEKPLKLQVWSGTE
Sequence of GST-fused C-tail of the insulin growth factor I receptor (residues 1268–1367) (P08069 1268-1367): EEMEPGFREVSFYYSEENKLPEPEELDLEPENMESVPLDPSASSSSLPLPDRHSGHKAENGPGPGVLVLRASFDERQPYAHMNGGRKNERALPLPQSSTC

percent of parent (% of wild-type GASP-2) [1]: 27
percent of parent (% of wild-type GASP-2) [2]: 24
Substance: GPCR-associated sorting protein 2 (GASP-2), full-length (from UniProt Q96D09) SWFW>AAAA in first GASP motif (GASP2-m1; residue numbers not printed)

percent of parent (% of wild-type GASP-2) [1]: 1.5
percent of parent (% of wild-type GASP-2) [2]: 5.5
percent of parent (% of wild-type GASP-2) [3]: 20
Substance: GPCR-associated sorting protein 2 (GASP-2), full-length (from UniProt Q96D09) SWFW>AAAA in first GASP motif; SWFW>AAAA in second GASP motif (GASP2-dm; residue numbers not printed)

percent of parent (% of wild-type GASP-2) [1]: 11
percent of parent (% of wild-type GASP-2) [2]: 20
Substance: GPCR-associated sorting protein 2 (GASP-2), full-length (from UniProt Q96D09) SWFW>AAAA in second GASP motif (GASP2-m2; residue numbers not printed)

percent of GASP input retained (% of GASP input) [4]: < 1
percent of GASP input retained (% of GASP input) [5]: 2
percent of GASP input retained (% of GASP input) [6]: 2
percent of GASP input retained (% of GASP input) [7]: 2
percent of GASP input retained (% of GASP input) [8]: 2
percent of GASP input retained (% of GASP input) (free GST): < 1
percent of GASP input retained (% of GASP input) [9]: 2
percent of GASP input retained (% of GASP input) [10]: < 1
percent of GASP input retained (% of GASP input) [11]: 2
Substance: GASP-9 (from UniProt Q7L311 1-632) (natural protein)
